Data reported in US20170101469A1 (FOURTH MILITARY MEDICAL UNIVERSITY, published 2017).
One block for each binder: values may come before it.

Assays:
human CD147 antigen [1] = target: T1, human CD147 antigen (human, UniProt P35613-2 22-205, limits assumed); experiment: SPR, ProteOn XPR36, antibody amine-coupled to GLC chip, human CD147 0.375-6 nM as analyte, 25 C; first set of experiments (FIG. 3A)
T1 sequence (looked up): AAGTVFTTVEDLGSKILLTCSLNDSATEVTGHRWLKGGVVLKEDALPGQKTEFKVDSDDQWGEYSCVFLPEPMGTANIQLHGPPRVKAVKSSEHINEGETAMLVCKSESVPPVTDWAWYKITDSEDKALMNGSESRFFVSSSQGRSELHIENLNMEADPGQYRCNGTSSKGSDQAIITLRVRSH
Method: (§1) The affinity (KD) for the binding of human CD147 antigen to selected antibodies was measured by Surface plasmon resonance analysis on a multi-SPR array system (ProteOn XPR36™, Bio-Rad). Data analysis was performed using ProteOn Manager Software (Bio-Rad). Briefly, the running buffer PBST (0.005% Tween-20 in PBS) was used continuously throughout the entire experiment at 25° C. A ProteOn GLC sensor chips (Bio-Rad) was activated for 6 min using a mixture of 0.2M EDC and 5 mM sulfo-NHS at a flow rate of 20 μl/min, followed by diluting 260 μl of 10 μg/mL each antibody in 10 mM acetate buffer at pH 4.5. The surface of the sensor chip was then deactivated with 150 μl of IM Ethanolamine Hydrochloride (pH 8.5). The sensor surface was regenerated through a wash (about 3 min) with HBS-EP buffer until the baseline was restored. A reference cell without antibodies was prepared by a similar procedure. 5 different concentrations of human CD147 antigen (0.375, 0.75, 1.5, 3, and 6 nM) were injected in channels 1 to 5, respectively, at flow rate of 50 μl/min, 3 min. A reference channel was prepared in the same manner without injection of CD147 antigen. The SPR binding responses were collected and analyzed using the ProteOn data manager program. […]

human CD147 antigen [2] = target: T1, human CD147 antigen; experiment: SPR (ProteOn XPR36), antibody immobilised on a GLC chip, human CD147 antigen injected at 0.375-6 nM, 25 C
Method: The affinity (KD) for the binding of human CD147 antigen to selected antibodies was measured by Surface plasmon resonance analysis on a multi-SPR array system (ProteOn XPR36™, Bio-Rad). Data analysis was performed using ProteOn Manager Software (Bio-Rad). Briefly, the running buffer PBST (0.005% Tween-20 in PBS) was used continuously throughout the entire experiment at 25° C. A ProteOn GLC sensor chips (Bio-Rad) was activated for 6 min using a mixture of 0.2M EDC and 5 mM sulfo-NHS at a flow rate of 20 μl/min, followed by diluting 260 μl of 10 μg/mL each antibody in 10 mM acetate buffer at pH 4.5. The surface of the sensor chip was then deactivated with 150 μl of IM Ethanolamine Hydrochloride (pH 8.5). The sensor surface was regenerated through a wash (about 3 min) with HBS-EP buffer until the baseline was restored. A reference cell without antibodies was prepared by a similar procedure. 5 different concentrations of human CD147 antigen (0.375, 0.75, 1.5, 3, and 6 nM) were injected in channels 1 to 5, respectively, at flow rate of 50 μl/min, 3 min. A reference channel was prepared in the same manner without injection of CD147 antigen. The SPR binding responses were collected and analyzed using the ProteOn data manager program.
Two sets of experiments were performed, in the first set of experiments, the human CD147 binding affinity of HAb18 and Metuzumab were compared (data shown in FIG. 3A), in the second set of experiments the human CD147 binding affinity of cHAb18 and Metuzumab were compared (data shown in FIG. 3B).

human CD147 antigen [3] = target: T1, human CD147 antigen; experiment: SPR, ProteOn XPR36, antibody amine-coupled to GLC chip, human CD147 0.375-6 nM as analyte, 25 C; second set of experiments (FIG. 3B)
Method: as §1

Kd (human CD147 antigen [1]): 0.321 nM
Kd (human CD147 antigen [2]): 0.362 nM
koff (human CD147 antigen [2]): 0.000417 s⁻¹
kon (human CD147 antigen [2]): 1.15e+06 M⁻¹ s⁻¹
Kd (human CD147 antigen [3]): 0.429 nM
B1: Metuzumab (antibody, human IgG1, kappa, V domains shown)
VH: EVKLEESGGGLVQPGGSMKLSCVASGFTFSDAWMDWVRQSPEKGLEWVAEIRSKANNHAPYYTESVKGRFTISRDDSKSIIYLQMNNLRAEDTGIYYCTRDSTATHWGQGTLVTVSA
VL: SIVMTQTPTFLVVSAGDRVTITCKASQSVINDVAWYQQKPGQSPKLLIFYASNRNTGVPDRFTGSGYGTDFTFTISTVQAEDLAVYFCQQDYSPPFTFGSGTKLEIKR
modifications: N-linked Mannose-5 oligosaccharide in the Fc region, no fucose or xylose residue detected (site not numbered in the filing)
notes: Human-mouse chimeric IgG1 made in acetyl-glucosamine transferase deficient CHO K1 MAGE1.5 cells; only the glycoform differs; Residues 1-16 are left out on that basis; also called HcHAb18; glycosylation modified chimeric antibody Metuzumab

Kd (human CD147 antigen [3]): 0.475 nM
B2: cHAb18 (antibody, human IgG1, kappa, V domains shown)
VH: B1 VH
VL: B1 VL
modifications: N-linked fucosylated oligosaccharides, G0F, G1F and G1F' glycoforms (site not numbered in the filing)
notes: Human-mouse chimeric IgG1 made in CHO K1 cells; also called chimeric antibody cHAb18; cHAb18 mAb

Kd (human CD147 antigen [1]): 0.362 nM
Kd (human CD147 antigen [2]): 0.321 nM
koff (human CD147 antigen [2]): 0.000351 s⁻¹
kon (human CD147 antigen [2]): 1.09e+06 M⁻¹ s⁻¹
B3: HAb18 (antibody, V domains shown)
VH: EVKLEESGGGLVQPGGSMKLSCVASGFTFSDAWMDWVRQSPEKGLEWVAEIRSKANNHAPYYTESVKGRFTISRDDSKSIIYLQMNNLRAEDTGIYYCTRDSTATHWGQGT
VL: B1 VL
notes: Murine monoclonal antibody from hybridoma CGMCC NO; 0426; The variable domains are tied to HAb18 through cHAb18, whose variable domains are 'derived from HAb18'; also called original mouse antibody HAb18; anti-CD147 murine monoclonal antibody HAb18
